Reference: publication PMC5244355

What was measured:
[1] = target: α-synuclein A53T amyloid fibres (human) (UniProt P37840); test: co-sedimentation; purified fibres (3.5 μM at monomer concentration) with 0.7 μM CCT or GroEL in 25 mM Tris pH 7.4, 5 mM MgCl2, 150 mM NaCl, 10% glycerol, 30 min, room temperature; 141,000 xg, 60 min, 4 °C; pellet and supernatant on SDS-PAGE, Coomassie, ImageJ
[2] = target: α-syn ΔC (α-synuclein A53T deletion mutant lacking most of the C-terminal part) (human)
[3] = target: α-syn NAC (α-syn 57–102) (human) (UniProt P37840)

chaperonin CCT (chaperonin containing TCP-1), bovine testis, sequence (Q3MHL7 whole entry, looked up): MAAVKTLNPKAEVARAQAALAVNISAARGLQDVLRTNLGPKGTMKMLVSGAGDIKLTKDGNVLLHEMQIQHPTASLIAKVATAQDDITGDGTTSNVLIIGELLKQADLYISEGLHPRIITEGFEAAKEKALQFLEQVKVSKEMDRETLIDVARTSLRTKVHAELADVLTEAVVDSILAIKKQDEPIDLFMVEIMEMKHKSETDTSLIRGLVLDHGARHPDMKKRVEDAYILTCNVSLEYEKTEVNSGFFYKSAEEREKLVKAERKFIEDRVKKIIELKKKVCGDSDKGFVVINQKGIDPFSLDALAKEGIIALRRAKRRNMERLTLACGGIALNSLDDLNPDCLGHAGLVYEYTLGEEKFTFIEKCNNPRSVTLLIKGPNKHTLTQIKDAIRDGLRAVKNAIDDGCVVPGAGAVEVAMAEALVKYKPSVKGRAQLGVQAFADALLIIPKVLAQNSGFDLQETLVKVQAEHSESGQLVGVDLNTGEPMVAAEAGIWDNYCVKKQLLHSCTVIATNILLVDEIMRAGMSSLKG
chaperonin CCT (chaperonin containing TCP-1), bovine testis, sequence (Q3T0K2 whole entry, looked up): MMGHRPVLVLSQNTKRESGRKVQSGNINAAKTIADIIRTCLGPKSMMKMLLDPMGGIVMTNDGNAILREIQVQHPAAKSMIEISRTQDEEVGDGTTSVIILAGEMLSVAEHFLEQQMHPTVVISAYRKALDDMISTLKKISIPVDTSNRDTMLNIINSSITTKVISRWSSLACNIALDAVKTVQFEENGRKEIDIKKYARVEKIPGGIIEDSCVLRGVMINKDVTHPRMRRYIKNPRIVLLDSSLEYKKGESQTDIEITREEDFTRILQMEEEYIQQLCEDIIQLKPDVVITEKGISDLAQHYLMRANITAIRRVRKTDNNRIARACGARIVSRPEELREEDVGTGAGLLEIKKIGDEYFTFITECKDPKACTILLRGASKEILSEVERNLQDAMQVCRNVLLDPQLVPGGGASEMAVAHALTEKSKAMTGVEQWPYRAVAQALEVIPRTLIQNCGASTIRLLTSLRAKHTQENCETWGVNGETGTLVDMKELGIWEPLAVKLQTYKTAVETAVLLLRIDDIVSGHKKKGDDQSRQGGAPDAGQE
chaperonin CCT (chaperonin containing TCP-1), bovine testis, sequence (Q3ZBH0 whole entry, looked up): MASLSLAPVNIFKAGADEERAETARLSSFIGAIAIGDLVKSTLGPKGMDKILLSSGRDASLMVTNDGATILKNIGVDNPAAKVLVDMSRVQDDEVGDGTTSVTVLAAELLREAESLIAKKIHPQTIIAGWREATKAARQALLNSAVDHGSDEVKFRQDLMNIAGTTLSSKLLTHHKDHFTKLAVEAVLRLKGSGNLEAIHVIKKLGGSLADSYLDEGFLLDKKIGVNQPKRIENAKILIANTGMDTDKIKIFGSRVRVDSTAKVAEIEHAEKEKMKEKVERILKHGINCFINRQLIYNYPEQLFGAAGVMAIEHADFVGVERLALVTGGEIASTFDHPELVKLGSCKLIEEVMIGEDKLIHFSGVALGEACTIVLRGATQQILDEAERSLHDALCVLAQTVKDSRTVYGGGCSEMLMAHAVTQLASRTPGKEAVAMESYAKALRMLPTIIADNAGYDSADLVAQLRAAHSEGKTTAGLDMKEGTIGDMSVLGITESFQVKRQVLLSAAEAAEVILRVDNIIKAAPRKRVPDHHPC
chaperonin CCT (chaperonin containing TCP-1), bovine testis, sequence (Q32L40 whole entry, looked up): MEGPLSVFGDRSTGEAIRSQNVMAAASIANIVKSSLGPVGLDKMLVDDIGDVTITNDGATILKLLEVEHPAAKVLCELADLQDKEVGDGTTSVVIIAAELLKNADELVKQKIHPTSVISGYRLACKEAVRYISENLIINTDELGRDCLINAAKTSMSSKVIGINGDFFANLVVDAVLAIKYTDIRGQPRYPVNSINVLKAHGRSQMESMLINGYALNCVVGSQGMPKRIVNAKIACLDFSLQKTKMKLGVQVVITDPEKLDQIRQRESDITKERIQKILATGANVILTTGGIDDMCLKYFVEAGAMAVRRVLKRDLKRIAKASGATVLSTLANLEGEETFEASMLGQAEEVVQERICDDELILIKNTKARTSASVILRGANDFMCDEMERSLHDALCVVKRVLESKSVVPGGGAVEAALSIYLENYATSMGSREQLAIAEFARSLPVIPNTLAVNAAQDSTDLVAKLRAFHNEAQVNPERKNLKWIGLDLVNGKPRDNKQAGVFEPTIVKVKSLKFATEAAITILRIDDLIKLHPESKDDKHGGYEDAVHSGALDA

Substance | percent of CCT cosedimented with fibres [1] | percentage of α-syn ΔC fibres (ThT fluorescence) with ADP and CCT: 33% at a molar ratio of 1:10, 58% at 1:50 [2] | percentage of α-syn NAC fibres (ThT fluorescence) with ADP and CCT at a molar ratio of 1:50 CCT:deletion mutant [3]
chaperonin CCT (chaperonin containing TCP-1), bovine testis, Q32L40 1-556; Q3ZBH0 1-535; Q3T0K2 1-545; Q3MHL7 1-531 | < 60% | – | –
chaperonin CCT (chaperonin containing TCP-1), bovine testis (from UniProt Q32L40 1-556; Q3ZBH0 1-535; Q3T0K2 1-545; Q3MHL7 1-531) (complex) | – | 58% | 38%
